The record followed here is patent US20150259371A1, “METHODS AND COMPOUNDS FOR INHIBITING GLYCOSYLTRANSFERASES” (SIMON FRASER UNIVERSITY, priority 2010, published 2015).

Substrate in the series: COc1ccc(O[C@H]2S[C@H](CO)[C@@H](O)[C@H](O)[C@H]2NC(C)=O)cc1
Briefly: OGA kinetics, Michaelis-Menten hydrolysis of pMP glycosides. It counts as biochemical, human. The following applies: other: 37° C., pH 7.4. The method, then:
OGA kinetics: Synthesis and characterization of para-methoxyphenyl-5SGlcNAc is described in Example II. Kinetics were performed at 37° C. in PBS, pH 7.4 in a total volume of […]. Substrate concentrations of 25 μM to 1.5 mM were used for pMP-GlcNAc and 25 to 800 μM for pMP-5SGlcNAc. OGA (which was over-expressed and purified as described in Ref. ^42) was used at a concentration of 1 μM for pMP-GlcNAc and 3.6 μM for pMP-5SGlcNAc. Rates were monitored at a wavelength of 296 nm over the course of 10-20 min. Data were fit to the Michaelis-Menten equation in GRAFIT^41 and the kcat and KM values determined.

B1: OGA (Homo sapiens) (protein)
chain: MVQKESQATLEERESELSSNPAASAGASLEPPAAPAPGEDNPAGAGGAAVAGAAGGARRFLCGVVEGFYGRPWVMEQRKELFRRLQKWELNTYLYAPKDDYKHRMFWREMYSVEEAEQLMTLISAAREYEIEFIYAISPGLDITFSNPKEVSTLKRKLDQVSQFGCRSFALLFDDIDHNMCAADKEVFSSFAHAQVSITNEIYQYLGEPETFLFCPTEYCGTFCYPNVSQSPYLRTVGEKLLPGIEVLWTGPKVVSKEIPVESIEEVSKIIKRAPVIWDNIHANDYDQKRLFLGPYKGRSTELIPRLKGVLTNPNCEFEANYVAIHTLATWYKSNMNGVRKDVVMTDSEDSTVSIQIKLENEGSDEDIETDVLYSPQMALKLALTEWLQEFGVPHQYSSRQVAHSGAKASVVDGTPLVAAPSLNATTVVTTVYQEPIMSQGAALSGEPTTLTKEEEKKQPDEEPMDMVVEKQEETDHKNDNQILSEIVEAKMAEELKPMDTDKESIAESKSPEMSMQEDCISDIAPMQTDEQTNKEQFVPGPNEKPLYTAEPVTLEDLQLLADLFYLPYEHGPKGAQMLREFQWLRANSSVVSVNCKGKDSEKIEEWRSRAAKFEEMCGLVMGMFTRLSNCANRTILYDMYSYVWDIKSIMSMVKSFVQWLGCRSHSSAQFLIGDQEPWAFRGGLAGEFQRLLPIDGANDLFFQPPPLTPTSKVYTIRPYFPKDEASVYKICREMYDDGVGLPFQSQPDLIGDKLVGGLLSLSLDYCFVLEDEDGICGYALGTVDVTPFIKKCKISWIPFMQEKYTKPNGDKELSEAEKIMLSFHEEQEVLPETFLANFPSLIKMDIHKKVTDPSVAKSMMACLLSSLKANGSRGAFCEVRPDDKRILEFYSKLGCFEIAKMEGFPKDVVILGRSL
notes: made in house
By Km is commonly meant the substrate concentration at which the rate is half of its maximum. Consider B1, for which the Km was 35 µM.
